B1: Apoptosis-stimulating of p53 protein 2 (Homo sapiens), Q13625-2 (parent)
chain: MDLTLAELQEMASRQQQQIEAQQQLLATKEQRLKFLKQQDQRQQQQVAEQEKLKRLKEIAENQEAKLKKVRALKGHVEQKRLSNGKLVEEIEQMNNLFQQKQRELVLAVSKVEELTRQLEMLKNGRIDSHHDNQSAVAELDRLYKELQLRNKLNQEQNAKLQQQRECLNKRNSEVAVMDKRVNELRDRLWKKKAALQQKENLPVSSDGNLPQQAASAPSRVAAVGPYIQSSTMPRMPSRPELLVKPALPDGSLVIQASEGPMKIQTLPNMRSGAASQTKGSKIHPVGPDWSPSNADLFPSQGSASVPQSTGNALDQVDDGEVPLREKEKKVRPFSMFDAVDQSNAPPSFGTLRKNQSSEDILRDAQVANKNVAKVPPPVPTKPKQINLPYFGQTNQPPSDIKPDGSSQQLSTVVPSMGTKPKPAGQQPRVLLSPSIPSVGQDQTLSPGSKQESPPAAAVRPFTPQPSKDTLLPPFRKPQTVAASSIYSMYTQQQAPGKNFQQAVQSALTKTHTRGPHFSSVYGKPVIAAAQNQQQHPENIYSNSQGKPGSPEPETEPVSSVQENHENERIPRPLSPTKLLPFLSNPYRNQSDADLEALRKKLSNAPRPLKKRSSITEPEGPNGPNIQKLLYQRTTIAAMETISVPSYPSKSASVTASSESPVEIQNPYLHVEPEKEVVSLVPESLSPEDVGNASTENSDMPAPSPGLDYEPEGVPDNSPNLQNNPEEPNPEAPHVLDVYLEEYPPYPPPPYPSGEPEGPGEDSVSMRPPEITGQVSLPPGKRTNLRKTGSERIAHGMRVKFNPLALLLDSSLEGEFDLVQRIIYEVDDPSLPNDEGITALHNAVCAGHTEIVKFLVQFGVNVNAADSDGWTPLHCAASCNNVQVCKFLVESGAAVFAMTYSDMQTAADKCEEMEEGYTQCSQFLYGVQEKMGIMNKGVIYALWDYEPQNDDELPMKEGDCMTIIHREDEDEIEWWWARLNDKEGYVPRNLLGLYPRIKPRQRSLA

The variants in the first assay derive from B1. The following applies: with yap1_chick YAP1, P46936.
Sequence of yap1_chick YAP1, P46936 (P46936 whole entry): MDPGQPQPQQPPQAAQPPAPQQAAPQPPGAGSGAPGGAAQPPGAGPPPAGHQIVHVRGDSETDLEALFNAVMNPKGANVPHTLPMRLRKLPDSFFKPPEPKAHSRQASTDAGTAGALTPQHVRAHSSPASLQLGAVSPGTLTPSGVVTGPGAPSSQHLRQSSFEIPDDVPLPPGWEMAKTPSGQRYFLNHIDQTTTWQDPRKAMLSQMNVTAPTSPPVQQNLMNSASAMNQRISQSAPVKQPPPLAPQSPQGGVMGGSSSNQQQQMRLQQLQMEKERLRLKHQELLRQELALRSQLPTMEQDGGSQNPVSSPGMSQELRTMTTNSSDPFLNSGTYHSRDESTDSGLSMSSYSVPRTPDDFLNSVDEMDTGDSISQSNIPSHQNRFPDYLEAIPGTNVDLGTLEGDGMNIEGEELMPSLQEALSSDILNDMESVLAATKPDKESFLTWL
As for P749A, the “effect of a mutation on the interaction” value is given as “disrupting interaction”.

Variants of B1 are the subject of the next assay. As to conditions: with yap1_chick YAP1, P46936. The source holds these as a separate data set.
P747A: the “effect of a mutation on the interaction” value was “decreasing interaction”.

Variants of B1 are the subject of a further assay. As to conditions: with yap1_chick YAP1, P46936. The source holds these as a separate data set.
Regarding Y751A, the “effect of a mutation on the interaction” value is on record as “disrupting interaction”.

Variants of B1 are the subject of the next assay. As to conditions: with yap1_chick YAP1, P46936. The source holds these as a separate data set.
As to Y746A, the “effect of a mutation on the interaction” value is reported as “disrupting interaction”.

The next assay covers variants of B1. The following applies: with yap1_chick YAP1, P46936. This is another data set of the same source.
As for P748A, the “effect of a mutation on the interaction” value is given as “disrupting interaction”.

Source of the values: IntAct's records for PubMed 11278422.
